Test results taken from patent US20240093191A1, “COMPOSITIONS AND METHODS FOR TREATING DISEASE ASSOCIATED WITH DUX4 OVEREXPRESSION” (RESEARCH INSTITUTE AT NATIONWIDE CHILDREN'S HOSPITAL, priority 2021, published 2024).

Legend:
Type in all cases: cell-based, human
DUX4 protein = test: Western blot of V5-tagged DUX4 protein in co-transfected HEK293 cells; conditions: CMV.DUX4-FL/CMV.eGFP, HEK293, molar ratio 1 to 3, eGFP normalizer, relative to U6-milacZ, N = 3-8
Description: Western Blots. […] 50 mM Tris (pH 7.5-8.0), 150 mM NaCl, 0.1% (v/v) SDS, 0.5% (v/v) deoxycholate, 1% (v/v) triton X-100 (Fisher Scientific) and 1 tablet of protease inhibitor (ThermoFisher Scientific) per 10 mL of buffer. The total protein extract was quantified using the DC Protein Assay (Bio-Rad). Twenty microgram samples were separated on 12% SDS-PAGE, transferred to nitrocellulose membrane, using the wet transfer system, and incubated with the following antibodies: mouse monoclonal antibody to V5 (horseradish peroxidase [HRP]-coupled) [1:5,000 in 5% milk TBST buffer (150 mM NaCl, 50 mM Tris-HCl pH 7.4 and 0.1% Tween 20 (Fisher Scientific)), R961-25; Invitrogen); rabbit polyclonal eGFP antibody (1:50,000 in 3% BSA PBS, ab290; Abcam); mouse monoclonal β-actin antibodies (1:60,000; Sigma, St Louis, MO); overnight at 4° C. When using the eGFP antibody, membranes were blocked 30 mins with 3% BSA PBS prior to blotting. eGFP-probed blots were washed five times, 5 min each with 0.5% Tween 20 (Fisher Scientific) in TBST buffer, and then incubated with HRP-coupled goat anti-rabbit secondary antibody (1:250,000 in 3% BSA PBS, 115-035-144; Jackson ImmunoResearch) for 2 hours at room temperature. V5-probed blots were washed five times, 5 min each with 0.1% Tween 20 in TBST buffer. Following washes, blots were developed using Immobilon Western HRP substrate (Millipore) and exposed to film. DUX4.V5, and eGFP quantification was assessed using ImageJ.

mir-675-5p [1] = test: TaqMan QRT-PCR of mature mir-675-5p from transfected constructs in HEK293 cells; conditions: HEK293, 24 h post-transfection; for mir-675-5p levels compared to U6.mir-675: 23 mer mature mir-675-5p
From the text: RNA Extraction. RNA from HEK293 cells was extracted for Northern blot assay and QPCR. The miRVANA miRNA isolation kit (ThermoFisher Scientific) was used according to manufacturer's directions to extract total RNA encompassing small RNAs, such as miRNAs. To extract RNA from C57BL/6 skeletal muscles, cryopreserved muscles were crushed under suboptimal temperatures using liquid nitrogen and using mortar and pestle. Crushed muscles were then lysed using […] of miRVANA miRNA isolation kit lysis buffer, a TissueLyser and 1.0 mm zirconia beads (Biospec). Muscle was homogenized at 30 Hz for 30 sec with 10 sec rest. This was repeated 3 times.
TaqMan Gene Expression Assay. QRT-PCR was carried out to quantify the expression of pri-mir-675, mir-675-5p and mi405 using TaqMan probes (ThermoFisher Scientific). Experiments were started by eliminating genomic DNA from the RNA preparations, and then cDNA was generated using the High-Capacity cDNA Reverse Transcription Kit (Applied Biosystems) following manufacturer's instructions. Within the same cDNA reaction, 1×RT random hexamer primers were used to generate the cDNA for RPL13A, used as a reference gene, and for pri-mir-675. To generate the cDNA for mir-675, the RT mir-675 reverse primer provided by ThermoFisher Scientific was used. For mi405, the mi405 qPCR protocol was done as it was previously described [Wallace et al., Mol. Ther. Methods Clin. Dev. 8: 121-30 (2018)]. To quantify mir-675 and mi405 levels, RNA was extracted using the total RNA protocol for the mirVana miRNA Isolation Kit (Ambion) from HEK293 cells. cDNA was generated using the High-Capacity cDNA Reverse Transcription Kit (Applied Biosystems) using a mix of random hexamer primers and specific reverse primer for pri-mir-675 and mir-675-5p. For mi405, 200 nM of the stem-loop forming primer (5′-[…]-3′) (SEQ ID NO: 144) was also used for the RT step. A custom TaqMan assay (Applied Biosystems) including 1.5 μM of Forward primer (5′-[…]-3′) (SEQ ID NO: 145), 0.7 μM of Reverse primer (5′-GTGCAGGGTCCGAGGT-3′) (SEQ ID NO: 146), and 0.2 μM of mi405 probe (5′-6FAM-ATACGACGTCCAGGAT-3′) (SEQ ID NO: 147) was then run using the CFX Connect Real Time system apparatus (Bio-Rad). RPL13A (Mm02526700_g1; Applied Biosystems) served as the reference gene. The TaqMan gene expression assay consisted of using the TaqMan Gene Expression Master mix and TaqMan probes purchased from ThermoFisher Scientific. 1× of probe was mixed with 1× of the TaqMan Gene Expression Master mix (ThermoFisher Scientific), and with 20 ng of cDNA. The mir-675- and mi405-specific primers and probes were designed to quantify only the mir-675-5p and mi405 mature sequence (see TaqMan Gene Expression Master mix protocol).

mir-675-5p [2] = test: ddPCR of all mature mir-675-5p sequences (TaqMan Advanced miRNA cDNA synthesis) in HEK293 cells
Description: Digital Droplet PCR (ddPCR). For mir-675 and mi405 constructs, RNA extraction was carried out as described for QPCR above. For cDNA synthesis, the TaqMan advanced cDNA synthesis kit (Thermo Fisher) was used and cDNA was prepared by following manufacturer's instructions. ddPCR was carried out using 1× ddPCR Supermix for probes (No dUTP) (Bio-Rad), 1× commercially available mir-675 advanced TaqMan probe, or a custom made mi405 advanced TaqMan probe (ThermoFisher) and 50 ng of cDNA. For DUX4 cDNA synthesis, the High-Capacity cDNA Reverse Transcription Kit (Applied Biosystems) was used according to manufacturer's instructions. Within the same cDNA reaction, 1×RT random hexamer primers and 25 pmoles of the Oligo(dT) primer were used to generate cDNA for DUX4 and DUX4-responsive biomarkers and for mouse Rpl13A, used as a reference gene. To quantify DUX4, the ddPCR reaction mixture (20 μL) contained 1× ddPCR Evagreen Supermix (Bio-Rad), 1 μM of forward and reverse DUX4 primers (Sharma et al., J Genet Syndr Gene Ther 2016 August; 7(4):303. doi: 10.4172/2157-7412.1000303. Epub 2016 Aug. 8), and 50 ng of cDNA. To quantify Rpl13A and DUX4-responsive biomarkers (Trim36 and Wfdc3), the 1× ddPCR Supermix for probes (No dUTP) and TaqMan specific probes were used for each of the genes. Droplets were generated using the Automatic Droplet generator QX200 AutoDG (Bio-Rad), the reactions were amplified in a C1000 Touch™ Thermal Cycler with 96-Deep Well Reaction Module (Bio-Rad). Cycling conditions were set up following the QX200 ddPCR Evagreen Supermix protocol. All assays are compatible with an annealing temperature of 58° C. Droplets were then read using the QX200 droplet reader (Bio-Rad). Finally, data were analyzed using the QuantaSoft analysis software (Bio-Rad). For quantification, each reaction of 20 μL was estimated to give at least 10,000 acceptable droplets.
In order to quantify the level of all these mature sequences, the TaqMan advanced miRNA cDNA synthesis method that uses universal reverse transcription (RT) chemistry to synthesize cDNA templates that can be quantified using the TaqMan Advanced miRNA probes was used. In this method, most of the processed mature miRNA sequences were quantified.

mir-675-5p [3] = test: Small-transcript northern blot of mir-675 processing in HEK293 cells; conditions: HEK293; anti-mir-675-5p biotinylated probe
From the text: Small-Transcript Northern Blots. […] (SEQ ID NO: 148)).

B1: U6.mir-675F2: U6 mir-675 construct with H1.mir-675-like flanks and cPPT/CTS sequence (nucleic acid)
DNA: TTTTAAAAGAAAAGGGGGGATTGGGGGGTACAGTGCAGGGGAAAGAATAGTAGACATAATAGCAACAGACATACAAACTAAAGAATTACAAAAACAAATTACAAAAATTCAAAATTTTTCTAGAGATCCGACGCCGCCATCTCTAGGCCCGCGCCGGCCCCCTCGCACAGACTTGTGGGAGAAGCTCGGCTACTCCCCTGCCCCGGTTAATTTGCATATAATATTTCCTAGTAACTATAGAGGCTTAATGTGCGATAAAAGACAGATAATCTGTTCTTTTTAATACTAGCTACATTTTACATGATAGGCTTGGATTTCTATAAGAGATACAAATACTAAATTATTATTTTAAAAAACAGCACAAAAGGAAACTCACCCTAACTGTAAAGTAATTGTGTGTTTTGAGACTATAAATATCCCTTGGAGAAAAGCCTTGTTTGCCCCAGGGTCTGGTGCGGAGAGGGCCCACAGTGGACTTGGTGACGCTGTATGCCCTCACCGCTCAGCCCCTGGGGAATTCTTCGATTCTGCTTTTTT
- Average inhibition efficiency (%) of DUX4 protein levels (DUX4 protein): 79 ± 6 (N = 3) %
- mir-675-5p levels compared to U6.mir-675 (mir-675-5p [1]): 882±108%
- ratio of mir-675-5p/pri-mir-675 compared to U6.mir-675 (mir-675-5p [1]): 918±169%
- fold change of all mature mir-675-5p sequences compared to U6.mir-675 (mir-675-5p [2]): 181±34%
- mature mir-675-5p bands on northern blot (mir-675-5p [3]): detectable mir-675 mature sequences

B2: U6.mir-675-2.1.1: mir-675 construct with modified 5' and 3' flanking sequences (nucleic acid)
DNA: TCTAGAGATCCGACGCCGCCATCTCTAGGCCCGCGCCGGCCCCCTCGCACAGACTTGTGGGAGAAGCTCGGCTACTCCCCTGCCCCGGTTAATTTGCATATAATATTTCCTAGTAACTATAGAGGCTTAATGTGCGATAAAAGACAGATAATCTGTTCTTTTTAATACTAGCTACATTTTACATGATAGGCTTGGATTTCTATAAGAGATACAAATACTAAATTATTATTTTAAAAAACAGCACAAAAGGAAACTCACCCTAACTGTAAAGTAATTGTGTGTTTTGAGACTATAAATATCCCTTGGAGAAAAGCCTTGTTTGCCCCAGGGTCTGGTGCGGAGAGGGCCCACAGTGGACTTGGTGACGCTGTATGCCCTCACCGCTCAGCCCCTGGGGATAACTCCTAATCACACTTTTTT
- Average inhibition efficiency (%) of DUX4 protein levels (DUX4 protein): 83±3%
- Average inhibition efficiency (%) of DUX4 protein levels (DUX4 protein; listed as U6-mir-675-2.1.1): 83 ± 3 (N = 3) %
- mir-675-5p levels compared to U6.mir-675 (mir-675-5p [1]): 282±34%
- ratio of mir-675-5p/pri-mir-675 compared to U6.mir-675 (mir-675-5p [1]): 207±38%
- fold change of all mature mir-675-5p sequences compared to U6.mir-675 (mir-675-5p [2]): 213±51%
- mature mir-675-5p bands on northern blot (mir-675-5p [3]): detectable mir-675 mature sequences
